Data on eight molecules can be found in patent US10428140B2, “Anti-EphA4 antibody” (EISAI R&D MANAGEMENT CO., LTD., priority 2015, dated 2019).

What all share (assay): Selectivity ELISA of humanized antibodies for human Eph receptor
What all share (type): binding
What all share (settings): coated protein 1 nM
A general note: ELISA stands for enzyme-linked immunosorbent assay.

For assay [1], the target named is T1, human EphA10 (Homo sapiens, UniProt Q5JZY3).
T1 construct: a protein of the extracellular region of each human Eph receptor fused with the SEAP protein and the His tag; made in house; host or cells: Expi293F cells (culture supernatant)
T1 sequence (Q5JZY3 34-565 limits assumed): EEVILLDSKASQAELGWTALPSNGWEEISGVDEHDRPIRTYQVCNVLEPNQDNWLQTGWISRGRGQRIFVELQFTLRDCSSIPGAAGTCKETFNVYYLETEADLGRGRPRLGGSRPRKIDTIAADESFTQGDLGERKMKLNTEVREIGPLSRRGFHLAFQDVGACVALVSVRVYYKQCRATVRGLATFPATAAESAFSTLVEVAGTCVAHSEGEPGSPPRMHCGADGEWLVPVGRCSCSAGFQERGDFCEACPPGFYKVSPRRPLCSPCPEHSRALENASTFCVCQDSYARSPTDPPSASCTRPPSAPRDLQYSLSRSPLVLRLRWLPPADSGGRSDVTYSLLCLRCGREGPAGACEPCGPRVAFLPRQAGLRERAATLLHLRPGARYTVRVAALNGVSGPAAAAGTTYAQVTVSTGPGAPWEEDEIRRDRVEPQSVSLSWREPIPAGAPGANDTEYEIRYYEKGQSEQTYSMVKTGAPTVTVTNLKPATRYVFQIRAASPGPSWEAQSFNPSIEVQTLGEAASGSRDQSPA
Put shortly:
(§1)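 Extracellular domains of human Eph receptors fused to SEAP-His were expressed in Expi293F cells for 5 days and captured from supernatant (1 nM final) on anti-His-coated plates. Humanized anti-EphA4 antibodies were incubated 1 h at room temperature, then HRP anti-IgG secondary, TMB substrate, and absorbance at 450 nm.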

For assay [2], the target named is T2, human EphB4 (Homo sapiens, UniProt P54760).
T2 construct: a protein of the extracellular region of each human Eph receptor fused with the SEAP protein and the His tag; made in house; host or cells: Expi293F cells
T2 sequence (P54760 16-539 limits assumed): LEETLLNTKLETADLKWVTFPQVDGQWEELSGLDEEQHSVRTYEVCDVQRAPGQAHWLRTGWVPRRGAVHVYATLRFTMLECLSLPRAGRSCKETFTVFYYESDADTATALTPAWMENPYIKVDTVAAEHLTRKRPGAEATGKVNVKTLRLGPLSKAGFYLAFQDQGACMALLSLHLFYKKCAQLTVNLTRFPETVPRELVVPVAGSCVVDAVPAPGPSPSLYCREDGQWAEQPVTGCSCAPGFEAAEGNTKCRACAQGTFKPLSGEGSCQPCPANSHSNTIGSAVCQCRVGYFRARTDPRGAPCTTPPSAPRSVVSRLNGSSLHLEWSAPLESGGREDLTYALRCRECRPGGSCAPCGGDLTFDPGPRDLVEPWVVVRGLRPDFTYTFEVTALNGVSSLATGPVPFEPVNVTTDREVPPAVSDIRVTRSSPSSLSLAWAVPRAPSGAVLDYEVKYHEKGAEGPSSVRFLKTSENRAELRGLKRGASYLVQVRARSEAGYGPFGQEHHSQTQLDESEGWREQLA
Put shortly: as §1

Assay [3] deals with T3, human EphB6 (Homo sapiens, UniProt O15197).
T3 construct: a protein of the extracellular region of each human Eph receptor fused with the SEAP protein and the His tag; made in house; host or cells: Expi293F cells
T3 sequence (O15197 32-594 limits assumed): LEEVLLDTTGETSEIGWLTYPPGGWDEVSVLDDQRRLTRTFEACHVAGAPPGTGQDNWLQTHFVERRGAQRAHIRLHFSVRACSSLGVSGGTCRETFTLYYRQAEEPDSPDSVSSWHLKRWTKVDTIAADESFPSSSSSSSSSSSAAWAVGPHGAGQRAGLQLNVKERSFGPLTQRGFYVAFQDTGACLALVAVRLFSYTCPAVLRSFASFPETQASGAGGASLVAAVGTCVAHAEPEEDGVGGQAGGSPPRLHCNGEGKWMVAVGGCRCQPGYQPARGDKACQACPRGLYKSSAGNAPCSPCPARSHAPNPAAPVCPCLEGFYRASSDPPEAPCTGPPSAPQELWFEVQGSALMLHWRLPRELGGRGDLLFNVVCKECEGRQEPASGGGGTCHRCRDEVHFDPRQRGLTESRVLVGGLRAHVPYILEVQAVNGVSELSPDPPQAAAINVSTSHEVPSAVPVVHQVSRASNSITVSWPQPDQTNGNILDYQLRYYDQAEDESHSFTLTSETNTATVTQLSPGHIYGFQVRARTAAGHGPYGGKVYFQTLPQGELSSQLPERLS
Put shortly:
as §1

B1: 154 (antibody, V domains shown)
VH: QVQLVQSGSELKKPGASVKVSCKASGYTFTDYSMHWVRQAPGQGLEWMGWINTETGEPTYADDFKGRFVFSLDTSVSTAYLQISSLKAEDTAVYYCARIPLYYYGSRYWYFDVWGQGTTVTVSS
VL: DIQMTQSPSSLSASVGDRVTITCRASENIYRNLAWYQQKPGKAPKLLLYAATNLADGVPSRFSGSGSGTDYTLTISSLQSEDFATYYCQHFWGTPWTFGQGTKVEIK
modifications: synthetic humanized antibody heavy chain variable region sequence; synthetic humanized antibody light chain variable region sequence
With B1, in assay [1], the “hEphA10-SEAP-: absorbance at 450 nm, percentage with respect to hEphA4-SEAP-His as 100%” value came to 5.9%. Also, the “hEphB4-SEAP-: absorbance at 450 nm, percentage with respect to hEphA4-SEAP-His as 100%” value in assay [2] is 6.4%. Also, in assay [3], the “hEphB6-SEAP-: absorbance at 450 nm, percentage with respect to hEphA4-SEAP-His as 100%” value was 6.4%.

B2: 157 (antibody, V domains shown)
VH: QVQLVQSGSELKKPGASVKVSCKASGYTFTDYSMHWVRQAPGQGLEWMGWINTETGEPTYAQGFTGRFVFSLDTSVSTAYLQISSLKAEDTAVYYCARIPLYYYGSRYWYFDVWGQGTTVTVSS
VL: DIQMTQSPSSLSASVGDRVTITCRASENIYRNLAWYQQKPGKAPQLLLYAATNLADGVPSRFSGSGSGTDYTLTISSLQPEDFATYYCQHFWGTPWTFGQGTKVEIK
modifications: synthetic humanized antibody heavy chain variable region sequence; synthetic humanized antibody light chain variable region sequence
Consider B2, for which the “hEphA10-SEAP-: absorbance at 450 nm, percentage with respect to hEphA4-SEAP-His as 100%” value in assay [1] came to 6.1%. Moreover, the “hEphB4-SEAP-: absorbance at 450 nm, percentage with respect to hEphA4-SEAP-His as 100%” value in assay [2] was 6.5%. Further, the “hEphB6-SEAP-: absorbance at 450 nm, percentage with respect to hEphA4-SEAP-His as 100%” value in assay [3] came out at 6.3%.

B3: 160 (antibody, V domains shown)
VH: QIQLVQSGSELKKPGASVKVSCKASGYTFTDYSMHWVRQAPGQGLKWMGWINTETGEPTYADDFKGRFVFSLDTSVSTAYLQISSLKAEDTAVYYCARIPLYYYGSRYWYFDVWGQGTTVTVSS
VL: DIQMTQSPSSLSASVGDRVTITCRASENIYRNLAWYQQKPGKAPQLLLYAATNLADGVPSRFSGSGSGTDYTLTISSLQPEDFATYYCQHFWGTPWTFGQGTKVEIK
modifications: synthetic humanized antibody heavy chain variable region sequence; synthetic humanized antibody light chain variable region sequence
For B3, the “hEphA10-SEAP-: absorbance at 450 nm, percentage with respect to hEphA4-SEAP-His as 100%” value in assay [1] was 5.0%. Besides, the “hEphB4-SEAP-: absorbance at 450 nm, percentage with respect to hEphA4-SEAP-His as 100%” value in assay [2] amounted to 6.3%. In assay [3], the “hEphB6-SEAP-: absorbance at 450 nm, percentage with respect to hEphA4-SEAP-His as 100%” value is on record as 6.2%.

B4: 155 (antibody, V domains shown)
VH: QIQLVQSGSELKKPGASVKVSCKASGYTFTDYSMHWVRQAPGQGLKWMGWINTETGEPTYADDFKGRFVFSLDTSVSTAYLQISSLKAEDTAVYYCARIPLYYYGSRYWYFDVWGQGTTVTVSS
VL: DIQMTQSPSSLSASVGDRVTITCRASENIYRNLAWYQQKPGKAPKLLLYAATNLADGVPSRFSGSGSGTDYTLTISSLQSEDFATYYCQHFWGTPWTFGQGTKVEIK
modifications: synthetic humanized antibody heavy chain variable region sequence; synthetic humanized antibody light chain variable region sequence
As for B4, in assay [1], the “hEphA10-SEAP-: absorbance at 450 nm, percentage with respect to hEphA4-SEAP-His as 100%” value is recorded as 5.4%. In assay [2], the “hEphB4-SEAP-: absorbance at 450 nm, percentage with respect to hEphA4-SEAP-His as 100%” value was determined as 5.7%. Moreover, the “hEphB6-SEAP-: absorbance at 450 nm, percentage with respect to hEphA4-SEAP-His as 100%” value in assay [3] came out at 5.6%.

B5: 144 (antibody, V domains shown)
VH: QVQLVQSGSELKKPGASVKVSCKASGYTFTDYSMHWVRQAPGQGLEWMGWINTETGEPTYADDFKGRFVFSLDTSVSTAYLQISSLKAEDTAVYYCARIPLYYYGSRYWYFDVWGQGTTVTVSS
VL: DIQMTQSPSSLSASVGDRVTITCRASENIYRNLAWYQQKPGKAPQLLLYAATNLADGVPSRFSGSGSGTDYTLTISSLQPEDFATYYCQHFWGTPWTFGQGTKVEIK
modifications: synthetic humanized antibody heavy chain variable region sequence; synthetic humanized antibody light chain variable region sequence
For the molecule B5, the “hEphA10-SEAP-: absorbance at 450 nm, percentage with respect to hEphA4-SEAP-His as 100%” value in assay [1] stood at 5.7%. The “hEphB4-SEAP-: absorbance at 450 nm, percentage with respect to hEphA4-SEAP-His as 100%” value in assay [2] is 5.7%. Moreover, in assay [3], the “hEphB6-SEAP-: absorbance at 450 nm, percentage with respect to hEphA4-SEAP-His as 100%” value is 5.9%.

B6: 145 (antibody, V domains shown)
VH: QVQLVQSGSELKKPGASVKVSCKASGYTFTDYSMHWVRQAPGQGLKWMGWINTETGEPTYADDFKGRFVFSLDTSVSTAYLQISSLKAEDTAVYYCARIPLYYYGSRYWYFDVWGQGTTVTVSS
VL: DIQMTQSPSSLSASVGDRVTITCRASENIYRNLAWYQQKPGKAPKLLLYAATNLADGVPSRFSGSGSGTDYTLTISSLQSEDFATYYCQHFWGTPWTFGQGTKVEIK
modifications: synthetic humanized antibody heavy chain variable region sequence; synthetic humanized antibody light chain variable region sequence
With B6, in assay [1], the “hEphA10-SEAP-: absorbance at 450 nm, percentage with respect to hEphA4-SEAP-His as 100%” value was determined as 6.5%. Moreover, the “hEphB4-SEAP-: absorbance at 450 nm, percentage with respect to hEphA4-SEAP-His as 100%” value in assay [2] is listed as 6.7%. For the same molecule, in assay [3], the “hEphB6-SEAP-: absorbance at 450 nm, percentage with respect to hEphA4-SEAP-His as 100%” value is listed as 6.6%.

B7: 159 (antibody, V domains shown)
VH: QVQLVQSGSELKKPGASVKVSCKASGYTFTDYSMHWVRQAPGQGLKWMGWINTETGEPTYADDFKGRFVFSLDTSVSTAYLQISSLKAEDTAVYYCARIPLYYYGSRYWYFDVWGQGTTVTVSS
VL: DIQMTQSPSSLSASVGDRVTITCRASENIYRNLAWYQQKPGKAPQLLLYAATNLADGVPSRFSGSGSGTDYTLTISSLQPEDFATYYCQHFWGTPWTFGQGTKVEIK
modifications: synthetic humanized antibody heavy chain variable region sequence; synthetic humanized antibody light chain variable region sequence
For B7, in assay [1], the “hEphA10-SEAP-: absorbance at 450 nm, percentage with respect to hEphA4-SEAP-His as 100%” value came to 5.3%. The “hEphB4-SEAP-: absorbance at 450 nm, percentage with respect to hEphA4-SEAP-His as 100%” value in assay [2] was 5.4%. Further, the “hEphB6-SEAP-: absorbance at 450 nm, percentage with respect to hEphA4-SEAP-His as 100%” value in assay [3] was determined as 5.5%.

B8: 158 (antibody, V domains shown)
VH: QVQLVQSGSELKKPGASVKVSCKASGYTFTDYSMHWVRQAPGQGLKWMGWINTETGEPTYAQGFTGRFVFSLDTSVSTAYLQISSLKAEDTAVYYCARIPLYYYGSRYWYFDVWGQGTTVTVSS
VL: DIQMTQSPSSLSASVGDRVTITCRASENIYRNLAWYQQKPGKAPQLLLYAATNLADGVPSRFSGSGSGTDYTLTISSLQPEDFATYYCQHFWGTPWTFGQGTKVEIK
modifications: synthetic humanized antibody heavy chain variable region sequence; synthetic humanized antibody light chain variable region sequence
Take B8: the “hEphA10-SEAP-: absorbance at 450 nm, percentage with respect to hEphA4-SEAP-His as 100%” value in assay [1] amounted to 6.4%. In addition, the “hEphB4-SEAP-: absorbance at 450 nm, percentage with respect to hEphA4-SEAP-His as 100%” value in assay [2] stood at 6.5%. Further, the “hEphB6-SEAP-: absorbance at 450 nm, percentage with respect to hEphA4-SEAP-His as 100%” value in assay [3] came to 6.3%.
